One block for each molecule: values may come before it.
Assays:
[1] = molecular target: T1, drDDC (Drosophila melanogaster, UniProt P05031, T117A/DEL476-510, form not given); test: HPLC-UV of decarboxylated product, Michaelis-Menten fit; format: biochemical; settings: 38°C, 40 µM PLP, 150 mM potassium phosphate pH 7.0
T1 construct: gene Ddc; homodimer, PLP holoenzyme; residues 1-475
T1 sequence (P05031 1-475 isoform P05031-2 T82A): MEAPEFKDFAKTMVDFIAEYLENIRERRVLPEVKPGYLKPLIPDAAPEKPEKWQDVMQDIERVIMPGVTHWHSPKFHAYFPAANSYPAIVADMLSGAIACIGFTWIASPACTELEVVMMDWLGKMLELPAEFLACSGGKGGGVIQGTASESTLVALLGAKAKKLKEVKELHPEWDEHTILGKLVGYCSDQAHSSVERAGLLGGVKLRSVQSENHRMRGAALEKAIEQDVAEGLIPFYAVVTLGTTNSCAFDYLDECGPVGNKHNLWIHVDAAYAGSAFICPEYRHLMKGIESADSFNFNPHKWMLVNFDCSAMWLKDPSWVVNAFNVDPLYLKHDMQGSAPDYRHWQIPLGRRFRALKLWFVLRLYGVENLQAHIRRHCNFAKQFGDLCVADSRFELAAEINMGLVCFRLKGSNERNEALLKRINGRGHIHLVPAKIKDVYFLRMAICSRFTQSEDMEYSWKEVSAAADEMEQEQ
Description: (§1) HPLC-UV of decarboxylated product, Michaelis-Menten fit on drDDC

[2] = molecular target: T2, drDDC (Drosophila melanogaster, UniProt P05031, T117S/DEL476-510, form not given); test: as above; format: biochemical; settings: 38°C, 40 µM PLP, 150 mM potassium phosphate pH 7.0
T2 construct: gene Ddc; homodimer, PLP holoenzyme; residues 1-475
T2 sequence (P05031 1-475 isoform P05031-2 T82S): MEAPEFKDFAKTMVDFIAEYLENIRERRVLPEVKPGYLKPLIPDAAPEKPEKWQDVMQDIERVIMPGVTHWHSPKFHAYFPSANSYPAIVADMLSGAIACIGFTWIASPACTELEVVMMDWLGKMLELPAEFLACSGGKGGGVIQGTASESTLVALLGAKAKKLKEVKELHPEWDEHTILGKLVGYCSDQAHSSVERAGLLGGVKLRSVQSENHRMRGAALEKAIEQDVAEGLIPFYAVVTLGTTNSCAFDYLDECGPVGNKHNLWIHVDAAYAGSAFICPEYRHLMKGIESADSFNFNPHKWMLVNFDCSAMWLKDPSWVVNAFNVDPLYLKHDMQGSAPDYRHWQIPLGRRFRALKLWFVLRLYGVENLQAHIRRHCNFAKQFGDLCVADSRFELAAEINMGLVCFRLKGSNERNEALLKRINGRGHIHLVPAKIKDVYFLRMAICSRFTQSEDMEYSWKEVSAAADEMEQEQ
Description: as §1

[3] = molecular target: T3, drDDC (Drosophila melanogaster, UniProt P05031, H227W/DEL476-510, form not given); test: as above; format: biochemical; settings: 38°C, 40 µM PLP, 150 mM potassium phosphate pH 7.0
T3 construct: gene Ddc; homodimer, PLP holoenzyme; residues 1-475
T3 sequence (P05031 1-475 isoform P05031-2 H192W): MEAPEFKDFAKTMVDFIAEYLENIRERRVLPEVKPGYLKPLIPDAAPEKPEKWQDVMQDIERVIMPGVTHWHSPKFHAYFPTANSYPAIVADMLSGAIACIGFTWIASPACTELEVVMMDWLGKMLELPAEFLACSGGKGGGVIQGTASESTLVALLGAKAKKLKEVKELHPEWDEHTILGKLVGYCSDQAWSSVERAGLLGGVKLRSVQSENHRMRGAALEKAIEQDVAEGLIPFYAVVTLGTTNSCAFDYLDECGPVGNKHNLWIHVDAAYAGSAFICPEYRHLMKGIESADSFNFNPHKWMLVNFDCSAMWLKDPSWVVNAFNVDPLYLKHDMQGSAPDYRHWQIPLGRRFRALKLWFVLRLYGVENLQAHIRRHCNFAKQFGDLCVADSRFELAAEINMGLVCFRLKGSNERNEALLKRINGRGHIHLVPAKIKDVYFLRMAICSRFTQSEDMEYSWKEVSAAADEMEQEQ
Description: as §1

[4] = molecular target: T4, drDDC (Drosophila melanogaster, UniProt P05031); test: X-ray crystal structure, […] Å; format: binding; settings: covalent internal aldimine (Schiff base) with K302
T4 construct: gene Ddc; homodimer, PLP holoenzyme; residues 1-475
T4 sequence (P05031 36-510): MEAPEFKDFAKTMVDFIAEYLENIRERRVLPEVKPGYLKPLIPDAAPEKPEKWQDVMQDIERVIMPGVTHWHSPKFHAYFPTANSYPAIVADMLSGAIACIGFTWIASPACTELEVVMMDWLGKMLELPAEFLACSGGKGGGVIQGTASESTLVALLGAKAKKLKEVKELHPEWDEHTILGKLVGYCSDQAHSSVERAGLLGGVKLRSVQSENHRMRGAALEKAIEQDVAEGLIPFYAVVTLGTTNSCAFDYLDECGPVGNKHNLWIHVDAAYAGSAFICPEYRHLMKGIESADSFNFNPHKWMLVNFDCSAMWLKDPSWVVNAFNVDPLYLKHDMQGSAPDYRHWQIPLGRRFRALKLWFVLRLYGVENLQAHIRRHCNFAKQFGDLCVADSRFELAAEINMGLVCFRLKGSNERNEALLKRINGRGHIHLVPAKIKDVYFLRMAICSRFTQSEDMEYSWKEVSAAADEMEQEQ

[5] = substrate: N[C@@H](Cc1c[nH]c2ccc(O)cc12)C(=O)O; test: HPLC-UV of decarboxylated product, Michaelis-Menten fit; format: biochemical, Drosophila melanogaster; settings: 38°C, 40 µM PLP, 150 mM potassium phosphate pH 7.0
Description: as §1

[6] = substrate: N[C@@H](Cc1ccc(O)c(O)c1)C(=O)O; test: as above; format: biochemical, Drosophila melanogaster; settings: 38°C, 40 µM PLP, 150 mM potassium phosphate pH 7.0
Description: as §1

[7] = substrate: NC(Cc1ccccc1O)C(=O)O; test: as above; format: biochemical, Drosophila melanogaster; settings: 38°C, 40 µM PLP, 150 mM potassium phosphate pH 7.0, racemic DL substrate
Description: as §1

[8] = substrate: NC(Cc1cccc(O)c1)C(=O)O; test: as above; format: biochemical, Drosophila melanogaster; settings: 38°C, 40 µM PLP, 150 mM potassium phosphate pH 7.0, racemic DL substrate
Description: as §1

[9] = molecular target: the molecule itself; test: crystal structure; hanging-drop vapor diffusion; 15% PEG 4000, 20% glycerol, 200 mM CaCl2, 100 mM cacodylic acid pH 6.5; molecular replacement with pig DDC (1js3); two molecules in the asymmetric unit

Molecule: Cc1ncc(COP(=O)(O)O)c(C=O)c1O [PLP]
- X-ray crystal structure, 1.75 Å [4]: The cofactor PLP binds to K302 through a Schiff base linkage

Molecule: N[C@@H](Cc1c[nH]c2ccc(O)cc12)C(=O)O [5-HTP]
- Km [1]: 3.5 ± 0.5 mM
- Km [2]: 0.6 ± 0.1 mM
- Km [3]: 1.1 ± 0.1 mM

B1: drDDC (Drosophila melanogaster) (protein)
chain: MEAPEFKDFAKTMVDFIAEYLENIRERRVLPEVKPGYLKPLIPDAAPEKPEKWQDVMQDIERVIMPGVTHWHSPKFHAYFPTANSYPAIVADMLSGAIACIGFTWIASPACTELEVVMMDWLGKMLELPAEFLACSGGKGGGVIQGTASESTLVALLGAKAKKLKEVKELHPEWDEHTILGKLVGYCSDQAHSSVERAGLLGGVKLRSVQSENHRMRGAALEKAIEQDVAEGLIPFYAVVTLGTTNSCAFDYLDECGPVGNKHNLWIHVDAAYAGSAFICPEYRHLMKGIESADSFNFNPHKWMLVNFDCSAMWLKDPSWVVNAFNVDPLYLKHDMQGSAPDYRHWQIPLGRRFRALKLWFVLRLYGVENLQAHIRRHCNFAKQFGDLCVADSRFELAAEINMGLVCFRLKGSNERNEALLKRINGRGHIHLVPAKIKDVYFLRMAICSRFTQSEDMEYSWKEVSAAADEMEQEQ
notes: homodimer, PLP holoenzyme; residues 1-475
- Km [5]: 0.4 ± 0.04 mM
- kcat [5]: 1.05 ± 0.0233 s⁻¹
- kcat/Km [5]: 2620 M⁻¹ s⁻¹
- Km [6]: 2.2 ± 0.3 mM
- kcat [6]: 4.7 ± 0.0267 s⁻¹
- kcat/Km [6]: 2140 M⁻¹ s⁻¹
- Km [7]: 1.1 ± 0.3 mM
- kcat [7]: 1.85 ± 0.133 s⁻¹
- kcat/Km [7]: 1680 M⁻¹ s⁻¹
- Km [8]: 2.3 ± 1.2 mM
- kcat [8]: 3.56 ± 0.673 s⁻¹
- kcat/Km [8]: 1550 M⁻¹ s⁻¹

B2: Drosophila melanogaster 3,4-dihydroxyphenylalanine decarboxylase, wild type (enzyme, UniProt P05031-2 1-475, looked up)
chain: MEAPEFKDFAKTMVDFIAEYLENIRERRVLPEVKPGYLKPLIPDAAPEKPEKWQDVMQDIERVIMPGVTHWHSPKFHAYFPTANSYPAIVADMLSGAIACIGFTWIASPACTELEVVMMDWLGKMLELPAEFLACSGGKGGGVIQGTASESTLVALLGAKAKKLKEVKELHPEWDEHTILGKLVGYCSDQAHSSVERAGLLGGVKLRSVQSENHRMRGAALEKAIEQDVAEGLIPFYAVVTLGTTNSCAFDYLDECGPVGNKHNLWIHVDAAYAGSAFICPEYRHLMKGIESADSFNFNPHKWMLVNFDCSAMWLKDPSWVVNAFNVDPLYLKHDMQGSAPDYRHWQIPLGRRFRALKLWFVLRLYGVENLQAHIRRHCNFAKQFGDLCVADSRFELAAEINMGLVCFRLKGSNERNEALLKRINGRGHIHLVPAKIKDVYFLRMAICSRFTQSEDMEYSWKEVSAAADEMEQEQ
modifications: lysine-pyridoxal-5-phosphate (LLP): PLP bound to K302 through a Schiff base (internal aldimine)
notes: the forward primer begins at ATG GAG GCG CCG GAG TTC (MEAPEF); also called drDDC; drDDC WT; source: Escherichia coli DE3, purified (chitin beads, DEAE-Sepharose, Mono-Q, gel filtration)
- stoichiometry N [9]: 2

Results, then the molecule that gave them:

- Km [1]: 5.6 ± 1 mM
- Km [2]: 4.5 ± 0.9 mM
- Km [3]: 4.4 ± 0.8 mM
Molecule: N[C@@H](Cc1ccc(O)c(O)c1)C(=O)O [DOPA]

- Km ([1]; racemic DL substrate): 13.3 ± 4.5 mM
- Km ([2]; racemic DL substrate): 11.4 ± 2.2 mM
- Km ([3]; racemic DL substrate): 2.6 ± 1.1 mM
Molecule: NC(Cc1cccc(O)c1)C(=O)O (racemic) [m-tyr, DL-m-tyrosine]

- Km ([1]; racemic DL substrate): 4.9 ± 1.5 mM
Molecule: NC(Cc1ccccc1O)C(=O)O (racemic) [o-tyr, DL-o-tyrosine]

Source: PMC2809104, “Crystal Structure and Substrate Specificity of Drosophila 3,4-Dihydroxyphenylalanine Decarboxylase” (PLoS ONE, 2010)
